Results as given in paper PMC8137598.

Molecular target: full-length A82F variant of CYP102A1 with an N-terminal His6 tag (Bacillus megaterium) (UniProt P14779)
Test: SEC-MALS

“full-length A82F variant of CYP102A1 with an N-terminal His6 tag (from UniProt P14779 1-1049) (enzyme)” gave a stoichiometry N of 2.
